Earlier results on one substance are cited in article PMC11111649.

This data set concerns the target Angiotensin II (Homo sapiens) (UniProt P01019).
Chain of UniProt P01019 (P01019 whole entry, looked up): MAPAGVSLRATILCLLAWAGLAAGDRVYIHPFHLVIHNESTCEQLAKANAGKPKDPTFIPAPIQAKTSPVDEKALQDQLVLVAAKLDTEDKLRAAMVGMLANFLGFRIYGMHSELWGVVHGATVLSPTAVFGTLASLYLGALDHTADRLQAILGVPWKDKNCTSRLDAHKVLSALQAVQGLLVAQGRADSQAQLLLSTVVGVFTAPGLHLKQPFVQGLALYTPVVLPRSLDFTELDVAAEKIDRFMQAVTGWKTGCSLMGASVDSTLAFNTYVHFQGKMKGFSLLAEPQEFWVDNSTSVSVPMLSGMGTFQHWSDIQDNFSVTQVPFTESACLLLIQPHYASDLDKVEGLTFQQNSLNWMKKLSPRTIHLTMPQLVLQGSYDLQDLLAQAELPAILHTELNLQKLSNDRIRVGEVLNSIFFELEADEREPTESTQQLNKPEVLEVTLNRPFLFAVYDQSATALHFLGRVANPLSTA

Turning to AT1R (from UniProt P30556), the Kd was 1 nM.

Broadly, the Kd is a measure of binding affinity in units of concentration.
